Measured values taken from PMC4219626 (Nature structural & molecular biology, 2014).
Values belong to the binder of their own block, whether it stands above or below them.

B2: Rrn11 (recombinant) (natural protein, S. cerevisiae, UniProt Q04712 1-507, looked up)
chain: MFEVPITLTNRKFAQRRKLKYQYINYISRRFDRISKKSTTTDSLPTPENSAAENNDEEEGQNSEAGTYRRSVLQQKKRRRERHWRSVVGEIYSTTESETDSQEEETEEGGEHDTGIDKEDSDEERKFWKKYEKPEKSFEIWRTVSSQNKQPINKQKMTYHNFKKIEKIPLRKMEIPLLHCTKENKLYFQSISRGLEPLKTSTSEVRNYRTRHIVTLTDLLHLNVSRHNWSLAYKIFATLIRIPGVQIKSLWGIGVEILDNLSNSSSGLDFLQWMCQIYSSKSRFVQNINYRSIVPPFQTGSRTHTAKFAITYLWSSLINCQKSMEPSSNIIDKPFDTENDLLQELIDKISEWVLTPPFMEDAEVWFIYASCHLLKADTLSRQFVNDNKNNDLIGLDRDIKINQVIKHIHYVRTFLKICLDKGGFAVPSRLIENQLKSFESRLYGEAQDIQERDVANVYDSIDNSSVENSFGDVYETNAEFLDTQLMDLSPEDNGLDEMHYSDEDSSE
B3: Rrn6 (recombinant, His6-tagged) (natural protein, S. cerevisiae, UniProt P32786 1-894, looked up)
chain: MSEGQIPSSDVLGSQLGVGVQGASLYCPQENYTTKKQEKPQWLRPVDDTLAEDALDLHIVVKSLLCDTAIRYISDDKVLQESDADDDLITSDIDEDTDNQGDTSIVVNPVIPVVPKDVHFFKKVDVGNDSMFGVNCDTPVSFQDYIPSDLLRNLDDTLQESTNSSRPMQDAFFWDPTVANRLDSQYIQTASDLRNYRDGTEIIAYASGKTGSVLNIAVLTRQNTLHLNRHNNVTSIELHSPIKSIKIPGASESIGRRSNLVGIITENSFQIFRIESVHSRSCDVMVSSSEPLYFVEIDDLQVVDFAFNPWDLQQFAIIDIKGNWSIGRIPKNFNNNNKRKLQLIDNLHGTIFDPEELSSWKRIEWFSHFQKILVFDRSKMIEIDFMNNWQTEVVQAKAWSNIRDYKRIDDKNGILLTSREIIIVGASESNDPVRRISWKHDLDPDDTTLRITVQKVKKPDHILLVAFVYSMRHKRIYMHVFSHRKANLFQSLGCSTVLEIPGGTPTGIETILTLDHIDDESRREEDADENFELVVDFLVKLRNSSEVYYYALSNTQNSEPNKQETPIIVDHPEWASLFNNADEREKESIGALVSQIKLKERERISRVQNLIEHENSHDEDKYLQDLGYRLSIATNELLESWQKTKDESILSGSLSHSKLKNLLENSDSFASIPEFSSLLDQFFQYYQDQDVTFIGFEKLLHLFLHEDVPGLDIFYNKLLQCWVLVSPQAELLTKEIVKDIIWSLARLEKPSLFEPIQNEISRSLSGPYQDIISSWDMDDINEEDESNEFNFDSQFSAPFNGRPPFNLNSQSQIPTIKSSQSSGLARRKRILKTQSQKATPLSQSTQNLSVLPDSMTPAFTLMQPPSSQISFVNDSQPRNSQKAKKKKKRIRGFG
B4: Rrn7 (recombinant, His6-tagged) (natural protein, S. cerevisiae, UniProt P40992 1-514, looked up)
chain: MSTFIRGPICGTDNCPSRLWRIIDGRRTCQYGHVMEGDVEFNDDEDDLNGLGAGVITRRLNLTTNATGSFQSSQLTNSQLLQQQQRQSHKKFKKLIGHEAKLLFLKSFQFILKRQIRWLITEMRFPKEFEHVAKIIWLKILKTINDQPQEELKLQLHMTSTISILYLASTHLSLPVYTCDYIKWICTAKMPYFQASEILPKSWRIQLPNYYVSILEGSISPFNGQLYNKIALTCGMIHFKEFFNSEISCQGLLLKLVMQCALPPEFYFYTKQVIEFEETDIRNLTLWERTDERHTGRVSNHAELRVLSYFMLTINWMLSFDRDRQYPLKWILSLTESLTQRTTTSESIGRNIVKVVYPDKPTSSDYFQWSEEETLEFLKWMEKQFLPTQTKSLHNENGSMEMTIDQKIARRKLYKIFPLDREANHDGEFNDSTHQLTFIEDLQERYAKQTPFFESNKIRDSLNYQEANPPARKEAIGRLLTHIASQLLVDFAISKEQLKDCISRIKNACLHRMN

Columns and labels:
Rrn11 (recombinant) = target: B2; assay: cross-linking
[1] = target: B4; assay: cross-linking
[2] = target: B3; assay: cross-linking
[3] = target: B4; assay: cross-linking; remark: listed apart in the source
[4] = target: B3; assay: cross-linking; remark: listed apart in the source
[5] = target: B3; assay: co-purification

binding result (Rrn11 (recombinant)): binds
binding result [1]: binds
binding result [2]: binds
B1: TATA binding protein (TBP) (natural protein, S. cerevisiae, UniProt P13393 1-240, looked up)
chain: MADEERLKEFKEANKIVFDPNTRQVWENQNRDGTKPATTFQSEEDIKRAAPESEKDTSATSGIVPTLQNIVATVTLGCRLDLKTVALHARNAEYNPKRFAAVIMRIREPKTTALIFASGKMVVTGAKSEDDSKLASRKYARIIQKIGFAAKFTDFKIQNIVGSCDVKFPIRLEGLAFSHGTFSSYEPELFPGLIYRMVKPKIVLLIFVSGKIVLTGAKQREEIYQAFEAIYPVLSEFRKM

Binder: B2
stoichiometry N [3]: 1
stoichiometry N [4]: 1

Binder: B3
stoichiometry N [3]: 1

Binder: B4
binding result [5]: binds
